This note sets out measurements from patent publication US20240376151A1, “STAPLED PEPTIDES AND METHODS THEREOF” (FOG PHARMACEUTICALS, INC., priority 2022, published 2024).

The target in this assay is T1, beta-catenin (Homo sapiens, UniProt P35222).
T1 construct: made in house; host or cells: E. coli BL21 (DE3) pLysS
T1 sequence (P35222 134-665): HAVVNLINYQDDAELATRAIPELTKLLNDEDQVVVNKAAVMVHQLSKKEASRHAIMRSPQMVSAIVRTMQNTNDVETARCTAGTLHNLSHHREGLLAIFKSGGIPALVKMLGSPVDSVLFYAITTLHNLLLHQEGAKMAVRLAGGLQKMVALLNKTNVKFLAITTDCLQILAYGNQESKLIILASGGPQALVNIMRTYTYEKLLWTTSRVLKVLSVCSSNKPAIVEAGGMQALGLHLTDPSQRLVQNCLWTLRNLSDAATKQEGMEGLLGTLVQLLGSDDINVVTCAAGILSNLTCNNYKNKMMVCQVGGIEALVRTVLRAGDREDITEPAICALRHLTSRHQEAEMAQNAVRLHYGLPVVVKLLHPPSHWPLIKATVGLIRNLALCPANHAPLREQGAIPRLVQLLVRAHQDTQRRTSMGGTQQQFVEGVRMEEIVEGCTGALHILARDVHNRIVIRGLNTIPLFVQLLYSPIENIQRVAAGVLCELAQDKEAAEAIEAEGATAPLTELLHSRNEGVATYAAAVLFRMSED
Briefly: Phage Library Screening with NGS, beta-catenin. It is filed as binding. As to conditions: for Target Concentration 10 (phage screen NGS readout): beta-catenin target concentration 10; for Target Concentration 10 (phage screen NGS readout) / Target Concentration 30 (phage screen NGS readout) / Target Concentration 100 (phage screen NGS readout) / Target Concentration 300 (phage screen NGS readout): no competitor; for Target Concentration 30 (phage screen NGS readout): beta-catenin target concentration 30; for Target Concentration 100 (phage screen NGS readout): beta-catenin target concentration 100; for Target Concentration 300 (phage screen NGS readout): beta-catenin target concentration 300; for Target Concentration 1000 (phage screen NGS readout): beta-catenin target concentration 1000.

On to DPAEWYCEHAALVCTNH, for which the “Target Concentration 10 (phage screen NGS readout)” value stood at 0, the “Target Concentration 30 (phage screen NGS readout)” value came to 12, the “Target Concentration 100 (phage screen NGS readout)” value came to 47 and the “Target Concentration 300 (phage screen NGS readout)” value came to 156. Besides, the “Target Concentration BLANK (phage screen NGS readout)” value (“Target Concentration BLANK” below) (first column) is reported as 2. Further, the “Target Concentration BLANK” value (fourth column) was found to be 1. Besides, under “second column”, the “Target Concentration BLANK” value worked out at 0. Also, the “Target Concentration BLANK” value (third column) turned out to be 0. Further, under “first 1000 column”, the “Target Concentration 1000 (phage screen NGS readout)” value stood at 148. In addition, the “Target Concentration 1000 (phage screen NGS readout)” value (second 1000 column) is recorded as 155.
Take DPAFESCFLAAHICYWE: the “Target Concentration 10 (phage screen NGS readout)” value was determined as 2, the “Target Concentration 30 (phage screen NGS readout)” value was 0, the “Target Concentration 100 (phage screen NGS readout)” value turned out to be 10 and the “Target Concentration 300 (phage screen NGS readout)” value is listed as 7. Also, the “Target Concentration BLANK” value (first column) is on record as 0. Besides, the “Target Concentration BLANK” value (fourth column) turned out to be 0. Moreover, the “Target Concentration BLANK” value (second column) is given as 0. Moreover, the “Target Concentration BLANK” value (third column) worked out at 0. Also, the “Target Concentration 1000 (phage screen NGS readout)” value (first 1000 column) came out at 18. The “Target Concentration 1000 (phage screen NGS readout)” value (second 1000 column) is reported as 16.
Consider DPAFLDCHIAAWTCNEF, for which the “Target Concentration 10 (phage screen NGS readout)” value was 0, the “Target Concentration 30 (phage screen NGS readout)” value is listed as 1, the “Target Concentration 100 (phage screen NGS readout)” value is reported as 10 and the “Target Concentration 300 (phage screen NGS readout)” value is recorded as 15. For the same sequence, the “Target Concentration BLANK” value (first column) was 0. The “Target Concentration BLANK” value (fourth column) amounted to 0. For the same sequence, the “Target Concentration BLANK” value (second column) turned out to be 0. The “Target Concentration BLANK” value (third column) is 0. Besides, under “first 1000 column”, the “Target Concentration 1000 (phage screen NGS readout)” value stood at 28. The “Target Concentration 1000 (phage screen NGS readout)” value (second 1000 column) amounted to 15.
On to DPAFLTCHIAAWACSEQ, for which the “Target Concentration 10 (phage screen NGS readout)” value is 0, the “Target Concentration 30 (phage screen NGS readout)” value was found to be 1, the “Target Concentration 100 (phage screen NGS readout)” value came to 21 and the “Target Concentration 300 (phage screen NGS readout)” value is 15. In addition, the “Target Concentration BLANK” value (first column) is recorded as 0. Moreover, the “Target Concentration BLANK” value (fourth column) came to 0. Besides, under “second column”, the “Target Concentration BLANK” value turned out to be 2. For the same sequence, the “Target Concentration BLANK” value (third column) came out at 1. Under “first 1000 column”, the “Target Concentration 1000 (phage screen NGS readout)” value amounted to 52. Besides, the “Target Concentration 1000 (phage screen NGS readout)” value (second 1000 column) came to 25.
For DPAHLMCHYAAWDCRDE, the “Target Concentration 10 (phage screen NGS readout)” value is given as 0, the “Target Concentration 30 (phage screen NGS readout)” value was determined as 0, the “Target Concentration 100 (phage screen NGS readout)” value amounted to 11 and the “Target Concentration 300 (phage screen NGS readout)” value came out at 13. Also, the “Target Concentration BLANK” value (first column) is listed as 0. Also, the “Target Concentration BLANK” value (fourth column) turned out to be 0. Besides, the “Target Concentration BLANK” value (second column) is reported as 0. The “Target Concentration BLANK” value (third column) is reported as 0. Moreover, the “Target Concentration 1000 (phage screen NGS readout)” value (first 1000 column) worked out at 12. For the same sequence, the “Target Concentration 1000 (phage screen NGS readout)” value (second 1000 column) is listed as 23.
With DPAHWHCEHAALLCASV, the “Target Concentration 10 (phage screen NGS readout)” value is on record as 2, the “Target Concentration 30 (phage screen NGS readout)” value stood at 15, the “Target Concentration 100 (phage screen NGS readout)” value came to 60 and the “Target Concentration 300 (phage screen NGS readout)” value turned out to be 231. Further, the “Target Concentration BLANK” value (first column) turned out to be 1. The “Target Concentration BLANK” value (fourth column) is 0. For the same sequence, the “Target Concentration BLANK” value (second column) was 0. Also, the “Target Concentration BLANK” value (third column) worked out at 0. Moreover, under “first 1000 column”, the “Target Concentration 1000 (phage screen NGS readout)” value turned out to be 177. The “Target Concentration 1000 (phage screen NGS readout)” value (second 1000 column) came to 234.
Turning to DPAHWRCEHAALLCWYN, the “Target Concentration 10 (phage screen NGS readout)” value is 13, the “Target Concentration 30 (phage screen NGS readout)” value is recorded as 6, the “Target Concentration 100 (phage screen NGS readout)” value was determined as 51 and the “Target Concentration 300 (phage screen NGS readout)” value was found to be 132. The “Target Concentration BLANK” value (first column) was 0. The “Target Concentration BLANK” value (fourth column) was determined as 0. The “Target Concentration BLANK” value (second column) is recorded as 0. For the same sequence, the “Target Concentration BLANK” value (third column) was 2. Besides, the “Target Concentration 1000 (phage screen NGS readout)” value (first 1000 column) was determined as 140. For the same sequence, the “Target Concentration 1000 (phage screen NGS readout)” value (second 1000 column) was 149.
With DPAHWSCEWAAEHCRLI, the “Target Concentration 10 (phage screen NGS readout)” value is given as 0, the “Target Concentration 30 (phage screen NGS readout)” value is on record as 1, the “Target Concentration 100 (phage screen NGS readout)” value is recorded as 0 and the “Target Concentration 300 (phage screen NGS readout)” value is on record as 31. The “Target Concentration BLANK” value (first column) is on record as 0. In addition, the “Target Concentration BLANK” value (fourth column) amounted to 0. For the same sequence, the “Target Concentration BLANK” value (second column) is recorded as 0. In addition, the “Target Concentration BLANK” value (third column) was 0. For the same sequence, the “Target Concentration 1000 (phage screen NGS readout)” value (first 1000 column) was 19. The “Target Concentration 1000 (phage screen NGS readout)” value (second 1000 column) is 64.
DPAHWVCEHAALNCDQN: the “Target Concentration 10 (phage screen NGS readout)” value stood at 0, the “Target Concentration 30 (phage screen NGS readout)” value is on record as 2, the “Target Concentration 100 (phage screen NGS readout)” value was 47 and the “Target Concentration 300 (phage screen NGS readout)” value is 96. The “Target Concentration BLANK” value (first column) turned out to be 0. In addition, the “Target Concentration BLANK” value (fourth column) was determined as 0. Moreover, where the note is “second column”, the “Target Concentration BLANK” value came out at 1. Moreover, for the setting “third column”, the “Target Concentration BLANK” value is recorded as 0. In addition, the “Target Concentration 1000 (phage screen NGS readout)” value (first 1000 column) was 104. Besides, the “Target Concentration 1000 (phage screen NGS readout)” value (second 1000 column) stood at 118.
DPAIADCDWAAEHCDLL: the “Target Concentration 10 (phage screen NGS readout)” value stood at 0, the “Target Concentration 30 (phage screen NGS readout)” value is 6, the “Target Concentration 100 (phage screen NGS readout)” value is listed as 118 and the “Target Concentration 300 (phage screen NGS readout)” value came out at 266. Besides, for the setting “first column”, the “Target Concentration BLANK” value was determined as 0. For the same sequence, the “Target Concentration BLANK” value (fourth column) is reported as 1. Further, the “Target Concentration BLANK” value (second column) stood at 1. Moreover, the “Target Concentration BLANK” value (third column) was 4. Besides, under “first 1000 column”, the “Target Concentration 1000 (phage screen NGS readout)” value came out at 325. The “Target Concentration 1000 (phage screen NGS readout)” value (second 1000 column) is 417.
As to DPAIFNCTMAALECTQI, the “Target Concentration 10 (phage screen NGS readout)” value is given as 0, the “Target Concentration 30 (phage screen NGS readout)” value came out at 0, the “Target Concentration 100 (phage screen NGS readout)” value turned out to be 2 and the “Target Concentration 300 (phage screen NGS readout)” value was 3. Moreover, under “first column”, the “Target Concentration BLANK” value stood at 0. For the same sequence, the “Target Concentration BLANK” value (fourth column) is recorded as 0. The “Target Concentration BLANK” value (second column) is listed as 0. Besides, the “Target Concentration BLANK” value (third column) is on record as 0. The “Target Concentration 1000 (phage screen NGS readout)” value (first 1000 column) is 19. Moreover, the “Target Concentration 1000 (phage screen NGS readout)” value (second 1000 column) is listed as 0.
Turning to DPAIIHCYQAAFQCQYM, the “Target Concentration 10 (phage screen NGS readout)” value is 0, the “Target Concentration 30 (phage screen NGS readout)” value was determined as 0, the “Target Concentration 100 (phage screen NGS readout)” value is 0 and the “Target Concentration 300 (phage screen NGS readout)” value came out at 0. Besides, under “first column”, the “Target Concentration BLANK” value is recorded as 0. The “Target Concentration BLANK” value (fourth column) was 0. Further, the “Target Concentration BLANK” value (second column) was found to be 0. Further, the “Target Concentration BLANK” value (third column) came to 0. For the same sequence, the “Target Concentration 1000 (phage screen NGS readout)” value (first 1000 column) came to 7. Moreover, for the setting “second 1000 column”, the “Target Concentration 1000 (phage screen NGS readout)” value is recorded as 0.
On to DPAIIRCYEAAFYCQNY, for which the “Target Concentration 10 (phage screen NGS readout)” value is given as 0, the “Target Concentration 30 (phage screen NGS readout)” value worked out at 3, the “Target Concentration 100 (phage screen NGS readout)” value is on record as 10 and the “Target Concentration 300 (phage screen NGS readout)” value is reported as 67. Further, the “Target Concentration BLANK” value (first column) worked out at 0. In addition, the “Target Concentration BLANK” value (fourth column) worked out at 0. For the same sequence, the “Target Concentration BLANK” value (second column) was determined as 0. Moreover, for the setting “third column”, the “Target Concentration BLANK” value worked out at 1. Further, the “Target Concentration 1000 (phage screen NGS readout)” value (first 1000 column) is listed as 93. Besides, the “Target Concentration 1000 (phage screen NGS readout)” value (second 1000 column) amounted to 94.
DPAILDCHIAAIQCFHD: the “Target Concentration 10 (phage screen NGS readout)” value is 2, the “Target Concentration 30 (phage screen NGS readout)” value came to 1, the “Target Concentration 100 (phage screen NGS readout)” value was 6 and the “Target Concentration 300 (phage screen NGS readout)” value is 8. Where the note is “first column”, the “Target Concentration BLANK” value came out at 0. Besides, the “Target Concentration BLANK” value (fourth column) stood at 3. Further, the “Target Concentration BLANK” value (second column) came to 0. The “Target Concentration BLANK” value (third column) was 0. In addition, the “Target Concentration 1000 (phage screen NGS readout)” value (first 1000 column) worked out at 1. The “Target Concentration 1000 (phage screen NGS readout)” value (second 1000 column) is 44.
